Measurements as given in the supplement of paper PMC6757056.
± gives the standard deviation of the averaged measurements.

B1: library; a variant is named by its letters at N, in order (parent)
chain: GCUGUCACCGGUGUAUUACCCUAGUGGUCGACCGGUCUGAUGAGUCUNNNNNNAGACGAAACAGC

Tests used:
[1] = variants of: B1; assay: FACS-Seq fitted mean relative fluorescence mCherry/BFP without ligand (log10 relative fluorescence); ligand: hypoxanthine (xanthine aptamer); higher = higher reporter protein expression; conditions: HEK293T, ligand present: no
Procedure, shortened: (§1)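 HEK293T libraries were lentivirally transduced with an mCherry reporter carrying the ribozyme switch and an EF1α-BFP marker, enriched, and incubated for 48 h with or without ligand before sorting into 6 bins by mCherry/BFP. Genomic DNA from each bin was PCR-amplified, barcoded and sequenced on MiSeq. Fluorescence is the fitted normal mean of the bin counts. The fit used log10(mCherry/BFP), and means were scaled to five spiked-in control ribozymes.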

[2] = variants of: B1; assay: normalized RNA/DNA level with ligand (relative to sTRSVctl = 100) (log10 (% of sTRSVctl)); ligand: hypoxanthine (xanthine aptamer); higher = less ribozyme self-cleavage, higher mRNA level; conditions: ligand concentration (+) RNA-Seq: 5 mM, HEK293T, reporter: mCherry (pCS4076), ligand present: yes
Procedure, shortened: (§2)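 HEK293T cells received ligand, where used, 1 h before being transfected with 4 µg per 6-well well of library plasmids encoding reporter-linked ribozyme switches. After 72 h, RNA was extracted with EDTA and sequenced. RNA level was derived from RNA reads per DNA read, normalized to a spiked-in non-cleaving sequence or the top sequences, then scaled and log-transformed. Values were ×100 then log10, the top set was 25 sequences, and the minimum was 100 DNA reads.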

[3] = variants of: B1; assay: normalized RNA/DNA level without ligand (relative to sTRSVctl = 100) (log10 (% of sTRSVctl)); ligand: hypoxanthine (xanthine aptamer); higher = less ribozyme self-cleavage, higher mRNA level; conditions: HEK293T, reporter: mCherry (pCS4076), ligand present: no
Procedure, shortened: as §2

[4] = variants of: B1; assay: FACS-Seq fitted mean relative fluorescence mCherry/BFP with ligand (log10 relative fluorescence); ligand: hypoxanthine (xanthine aptamer); ligand concentration (+) FACS-Seq: 5 mM; higher = higher reporter protein expression; conditions: HEK293T, ligand present: yes
Procedure, shortened: as §1

| Variant | FACS-Seq fitted mean (log10) [1] | normalized RNA/DNA level with ligand (log10) [2] | normalized RNA/DNA level without ligand (log10) [3] | FACS-Seq fitted mean (log10) [4] |
| --- | --- | --- | --- | --- |
| AUUUAA | 0.629 ± 0.027 | 1.901 ± 0.019 | 1.81 ± 0.051 | 0.649 ± 0.015 |
| AUUUGA | 0.636 ± 0.085 | 1.91 ± 0.033 | 1.6633 ± 0.00044 | 0.602 ± 0.16 |
| AUUUGC | 0.485 ± 0.047 | 1.91 ± 0.043 | 1.783 ± 0.0061 | 0.704 ± 0.052 |
| AUUUGU | 0.6123 ± 2.1e-06 | 1.923 ± 0.01 | 1.638 ± 0.013 | 0.723 ± 0.041 |
| CAAUUC |  | 1.93 ± 0.07 | 1.87 ± 0.058 |  |
| UAACCA |  | 1.941 ± 0.018 | 1.89 ± 0.042 |  |
| UAACCU |  | 1.983 ± 0.011 | 1.91 ± 0.04 |  |
| CUUUCA | 0.608 ± 0.077 | 1.918 ± 0.0052 | 1.89 ± 0.041 | 0.565 ± 0.017 |
| UAACAU |  | 1.919 ± 0.013 | 1.78 ± 0.024 |  |
| UAACAC |  | 1.91 ± 0.05 | 1.7 ± 0.053 |  |
| CAACUG |  | 1.9 ± 0.045 | 1.84 ± 0.022 |  |
| CAACUC |  | 1.97 ± 0.028 | 1.96 ± 0.032 |  |
| CAAACU |  | 1.94 ± 0.039 | 1.9 ± 0.035 |  |
| CAAACA |  | 1.93 ± 0.061 | 1.75 ± 0.039 |  |
| CAAACG |  | 1.906 ± 0.0079 | 1.87 ± 0.06 |  |
| AUUGCG | -0.0459 ± 0.021 | 1.857 ± 0.015 | 1.41 ± 0.065 | 0.458 ± 0.028 |
| GAAGCU |  | 1.982 ± 0.015 | 1.84 ± 0.031 |  |
| GAAGCC |  | 1.948 ± 0.016 | 1.85 ± 0.041 |  |
| UAAGAU |  | 1.907 ± 0.0056 | 1.72 ± 0.057 |  |
| AUUCCG | 0.126 ± 0.023 | 1.93 ± 0.021 | 1.589 ± 0.013 | 0.296 ± 0.031 |
| AUUCCU | 0.507 ± 0.036 | 1.922 ± 0.0034 | 1.89 ± 0.064 | 0.567 ± 0.011 |
| UAAGUU |  | 1.97 ± 0.025 | 1.83 ± 0.02 |  |
| UAAGUA |  | 1.89 ± 0.041 | 1.8797 ± 0.00095 |  |

| Variant | FACS-Seq fitted mean (log10) [1] | normalized RNA/DNA level with ligand (log10) [2] | normalized RNA/DNA level without ligand (log10) [3] | FACS-Seq fitted mean (log10) [4] |
| --- | --- | --- | --- | --- |
| UAAGUC |  | 1.932 ± 0.0068 | 1.925 ± 0.016 |  |
| UAAAGA |  | 1.891 ± 0.0053 | 1.57 ± 0.021 |  |
| GAAAUC |  | 1.97 ± 0.022 | 1.88 ± 0.078 |  |
| GAAAUU |  | 1.95 ± 0.046 | 1.87 ± 0.039 |  |
| AAAAAC |  | 1.894 ± 0.015 | 1.8 ± 0.021 |  |
| AACAAA |  | 1.91 ± 0.035 | 1.785 ± 0.017 |  |
| AACAAC |  | 1.899 ± 0.015 | 1.8557 ± 0.001 |  |
| UAAACC |  | 1.955 ± 0.016 | 1.91 ± 0.0052 |  |
| UAAACG |  | 1.9 ± 0.087 | 1.71 ± 0.036 |  |
| UAAACA |  | 1.913 ± 0.017 | 1.875 ± 0.015 |  |
| UAAACU |  | 1.94 ± 0.039 | 1.87 ± 0.034 |  |
| GUUUUU | 0.142 ± 0.041 | 1.941 ± 0.0034 | 1.93 ± 0.05 | 0.1 ± 0.015 |
| GUUUUC | -0.0599 ± 0.0079 | 1.92 ± 0.025 | 1.952 ± 0.01 | -0.0383 ± 0.14 |
| GUUUUG | 0.498 ± 0.038 | 1.9 ± 0.084 | 1.567 ± 0.002 | 0.551 ± 0.047 |
| AUUGAU | 0.686 ± 0.037 | 1.92 ± 0.07 | 1.73 ± 0.074 | 0.657 ± 0.014 |
| AUUGAG | 0.25 ± 0.005 | 1.82 ± 0.062 | 1.37 ± 0.029 | 0.476 ± 0.0067 |
| AUUGAC | 0.697 ± 0.08 | 1.914 ± 0.01 | 1.816 ± 0.0025 | 0.672 ± 0.11 |
| CUUACC | 0.555 ± 0.022 | 1.91 ± 0.046 | 1.907 ± 0.0033 | 0.393 ± 0.022 |
| GUUGUU | 0.56 ± 0.026 | 1.969 ± 0.0045 | 1.9 ± 0.029 | 0.67542 ± 0.00062 |
| GUUGUA | 0.455 ± 0.0078 | 1.9 ± 0.025 | 1.84 ± 0.032 | 0.632 ± 0.012 |
| GUUGUG | 0.225 ± 0.066 | 1.83 ± 0.042 | 1.39 ± 0.028 | 0.406 ± 0.14 |
| CUUUUA | 0.647 ± 0.044 | 1.92 ± 0.051 | 1.77 ± 0.043 | 0.318 ± 0.12 |
